The test system of assay [1] is caveolin-1/CSK complex. As to the kind of experiment: Co-immunoprecipitation of caveolin-1 and CSK. The format is cell-based, human. The note with it: HEK 293T cells transfected with WT or Y14A caveolin-1; 5 mM H2O2, 10 min. As for the experimental part:
(§1) cDNA encoding full-length human caveolin-1 was obtained from Thermo Scientific (Waltham, MA, USA). The Y14A caveolin-1 mutant was generated using a QuickChange site-directed mutagenesis kit (Stratagene, Santa Clara, CA, USA) using PCR. pCMV-SPORT6-caveolin-1 cDNA (25 ng) was used as a template and added to dNTP mix, Pfu buffer, Pfu turbo DNA polymerase and 125 ng of each of the mutagenic primers: sense, 5′-[…]-3′ and antisense, 5′-[…]-3′. Samples were then incubated at 95°C for 1 min, then for 20 cycles of 95°C for 1 min, 65°C for 4 min, and 68°C for 12 min. The methylated parental DNA template in the PCR product was digested using the DpnI (10 U) restriction enzyme for 3 h at 37°C. […] After mutagenesis, 1 µg of caveolin-1 wild-type (WT) or Y14A mutant DNA was transfected into HEK 293T cells using VIVAMAGIC transfection reagent (VIVAGEN, Seongnam, Korea) containing 10% FBS according to the manufacturer’s instructions for 24 h before treatment with 5 mM H2O2 for 10 min; the cells were then analyzed by immunoblotting.
(§2) Cells were plated and transfected with green fluorescence protein (GFP) siRNA (Samchully Pharm Co. Ltd., Seoul, Korea) as a control group and human CSK siRNA and human SHP-2 siRNA from Bioneer (Daejeon, Korea) using Lipofectamine RNAiMAX (Invitrogen, Carlsbad, CA, USA) according to the manufacturer’s instructions to achieve a final concentration of 300 nM. […]

In assay [2] the test system is caveolin-1/SHP-2 complex. Put plainly: Co-immunoprecipitation of caveolin-1 and SHP-2. It is filed as cell-based, human. The note with it: HEK 293T cells transfected with WT or Y14A caveolin-1; 5 mM H2O2, 10 min. As for the experimental part:
as §1, §2

B1: WT caveolin-1: full-length human wild-type caveolin-1 expressed in transfected HEK 293T cells (protein)
chain: MSGGKYVDSEGHLYTVPIREQGNIYKPNNKAMADELSEKQVYDAHTKEIDLVNRDPKHLNDDVVKIDFEDVIAEPEGTHSFDGIWKASFTTFTVTKYWFYRLLSALFGIPMALIWGIYFAILSFLHIWAVVPCIKSFLIEIQCISRVYSIYVHTVCDPLFEAVGKIFSNVRINLQKEI
modifications: phosphotyrosine at 14 after H2O2 treatment
notes: full-length human wild-type caveolin-1 expressed in transfected HEK 293T cells
In the case of B1, the “interaction between CSK and transfected caveolin-1” value in assay [1] is “An interaction between CSK and WT caveolin-1, but not Y14A mutant caveolin-1, was observed in the presence of H2O2”. Moreover, in assay [2], the “interaction of SHP-2 with transfected caveolin-1” value is “SHP-2 interacted with WT caveolin-1, but not mutant caveolin-1, and only in the presence of H2O2”.

Source of the values: paper PMC3954793, “SHP-2 Binds to Caveolin-1 and Regulates Src Activity via Competitive Inhibition of CSK in Response to H2O2 in Astrocytes” (PLoS ONE, 2014).
